Biological target: T1, Saccharomyces cerevisiae eIF4E (S. cerevisiae, UniProt P07260 1-213, ^15N labeled)
T1 construct: eIF4E of Saccharomyces cerevisiae; source: E. coli BL21-star, purified (nickel resin, TEV cleavage, m^7G cap resin)
T1 sequence (looked up): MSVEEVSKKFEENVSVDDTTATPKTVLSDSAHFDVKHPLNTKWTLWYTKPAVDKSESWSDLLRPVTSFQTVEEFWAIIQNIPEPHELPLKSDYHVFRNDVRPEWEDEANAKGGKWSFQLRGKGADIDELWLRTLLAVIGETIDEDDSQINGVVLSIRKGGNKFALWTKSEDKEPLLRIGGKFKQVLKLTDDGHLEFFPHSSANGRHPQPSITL
Test: NMR titration; ^15N HSQC of 200 μM ^15N S. cerevisiae eIF4E with 250 μM m^7GTP; peptide added to 1 mM; 50 mM phosphate pH 6.5, 50 mM KCl, 298 K, 900 MHz
Conditions: both partners purified

B1: 4E-BP1 peptide (amino acids 51–67) (peptide)
peptide: RIIYDRKFLMECRNSPV
notes: human 4E-BP1, amino acids 51–67; also called human 4E-BP1 amino acids 51–67; source: synthetic peptide (Elim Bio)
- binding result: binds

Reference: paper PMC11251518, “A novel reporter for helicase activity in translation uncovers DDX3X interactions” (RNA, 2024)
